Results published in FireProtDB (doi:10.1021/bi000442n).
Values joined by “and” are separate entries in the source; they are usually repeats but may differ in a detail not shown here. Identical values can stand only once.

Conditions: Mus musculus; pH 7.5; Thermal; CD; KH2PO4-K2HPO4 10 mM; NaCl 0.0 mM; reversible: yes; whole UniProt chain shown

B1: Signal peptide peptidase wild type, Q9D8V0 (protein)
chain: MDSAVSDPHNGSAEAGTPANGTTRPPSTPEGIALAYGSLLLMALLPIFFGALRSVRCARGKSSSDMPETITSRDAARFPIIASCTLLGLYLFFKIFSQEYINLLLSMYFFVLGILALSHTISPFMNKFFPANFPNRQYQLLFTQGSGENKEEIINYEFDTKDLVCLGLSSVVGVWYLLRKHWIANNLFGLAFSLNGVELLHLNNVSTGCILLGGLFIYDIFWVFGTNVMVTVAKSFEAPIKLVFPQDLLEKGLEADNFAMLGLGDIVIPGIFIALLLRFDISLKKNTHTYFYTSFAAYIFGLGLTIFIMHIFKHAQPALLYLVPACIGFPVLVALAKGEVAEMFSYEESNPKDPAAETESKEESTEASASKRLEKKEK
For B1, which Tm is on record?
The Tm was 43.7 °C and 41 °C.
